The values that follow come from PMC8934665, “AT-hook peptides bind the major and minor groove of AT-rich DNA duplexes”.

Holding throughout (conditions): tags: none; hairpin, 9 bp stem, 4 nt loop
Data set [1] deals with T1, ATHP1 (AT-hook peptide 1) (mammalian (species ), UniProt P52926 26-34).
T1 chain: KRGRGRPRK
As to the kind of experiment: ITC; two-site model, site 1, n1 = 1.3; ITC, UV melting and fluorescence in 1xBPE (6 mM Na2HPO4, 2 mM NaH2PO4, 1 mM Na2EDTA, pH 7.0), ITC 10 uM DNA; native MS probably in ammonium acetate (concentration not given); temperature not stated. On the technique in general: In ITC the heat of successive injections is recorded.

Data set [2] addresses T2, ATHP3 (AT-hook peptide 3) (mammalian (species ), UniProt P52926 74-83).
T2 chain: KRPRGRPRKW
The data set is described as above.

The target of data set [3] is T2, ATHP3 (AT-hook peptide 3). The data set is described as follows: ITC; two-site model, site 2, n2 = 1.1; ITC, UV melting and fluorescence in 1xBPE (6 mM Na2HPO4, 2 mM NaH2PO4, 1 mM Na2EDTA, pH 7.0), ITC 10 uM DNA; native MS probably in ammonium acetate (concentration not given); temperature not stated.
Data set [4] has as its target T1, ATHP1 (AT-hook peptide 1). The data set is described as follows: ITC; two-site model, site 2, n2 = 1.4; ITC, UV melting and fluorescence in 1xBPE (6 mM Na2HPO4, 2 mM NaH2PO4, 1 mM Na2EDTA, pH 7.0), ITC 10 uM DNA; native MS probably in ammonium acetate (concentration not given); temperature not stated.
The target in data set [5] is T3, ATHP2 (AT-hook peptide 2) (mammalian (species ), UniProt P52926 45-53).
T3 chain: PKRPRGRPK
The data set is described as follows: native IMS-MS; Hoechst 33258 in minor groove, 1:1:1 complex; ITC, UV melting and fluorescence in 1xBPE (6 mM Na2HPO4, 2 mM NaH2PO4, 1 mM Na2EDTA, pH 7.0), ITC 10 uM DNA; native MS probably in ammonium acetate (concentration not given); temperature not stated.

For GGATATTGCCCCCGCAATATCC (structured_DNA) [FL876], the Ka in data set [1] is 1.9e+08 M⁻¹; in data set [2], 1.1e+07 M⁻¹; in data set [3], 1.1e+06 M⁻¹; in data set [4] it was 4e+06 M⁻¹. Moreover, the binding result in data set [5] is on record as “binds”.
